The data set concerns the target T1, RecE564 K704A (Escherichia coli K12, UniProt P15032 564-866, K704A).
T1 sequence: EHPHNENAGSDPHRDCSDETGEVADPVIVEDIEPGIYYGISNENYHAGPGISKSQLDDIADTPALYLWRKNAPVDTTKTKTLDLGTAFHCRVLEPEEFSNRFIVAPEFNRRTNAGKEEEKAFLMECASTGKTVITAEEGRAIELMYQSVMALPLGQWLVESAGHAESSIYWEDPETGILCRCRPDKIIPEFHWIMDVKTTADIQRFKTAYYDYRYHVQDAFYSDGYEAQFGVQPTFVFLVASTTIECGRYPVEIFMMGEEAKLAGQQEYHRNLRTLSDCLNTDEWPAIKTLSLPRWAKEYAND
The data set is described as follows: fluorescence anisotropy. (In fluorescence polarisation assays a small probe gives low polarisation when free and higher when bound to something large.)

B1: F25 (dsDNA)
DNA 1: TAGAGCTTAATTGCTGAATCTGGTG
DNA 2: CACCAGATTCAGCAATTAAGCTCTA
For B1, the Kd (as a rule, the equilibrium constant for the complex coming apart) stood at 330 ± 50 nM.
